These results are taken from FireProtDB (doi:10.1021/bi00116a007).

For the data set the following is noted: Escherichia coli (strain K12); pH 7.5; 25 °C; Urea; DSC; potassium-HEPES 40 mM; reversible: yes; whole UniProt chain shown.

B1: Aspartate aminotransferase wild type, P00509 (protein)
chain: MFENITAAPADPILGLADLFRADERPGKINLGIGVYKDETGKTPVLTSVKKAEQYLLENETTKNYLGIDGIPEFGRCTQELLFGKGSALINDKRARTAQTPGGTGALRVAADFLAKNTSVKRVWVSNPSWPNHKSVFNSAGLEVREYAYYDAENHTLDFDALINSLNEAQAGDVVLFHGCCHNPTGIDPTLEQWQTLAQLSVEKGWLPLFDFAYQGFARGLEEDAEGLRAFAAMHKELIVASSYSKNFGLYNERVGACTLVAADSETVDRAFSQMKAAIRANYSNPPAHGASVVATILSNDALRAIWEQELTDMRQRIQRMRQLFVNTLQEKGANRDFSFIIKQNGMFSFSGLTKEQVLRLREEFGVYAVASGRVNVAGMTPDNMAPLCEAIVAVL
As to B1, the denaturant m value was determined as 2.56 kcal/mol/M, the “denaturant midpoint (higher = more stable)” value worked out at 3.89 M and the unfolding free energy was 9.96 kcal/mol.
